Laboratory results: US20160003843A1 (published 2016)
Ends that are not written are not given here.

What was measured:
[1] = biological target: T1, unphosphorylated Thr peptide (Thr at position 8 of …); assay: competition phage ELISA; Asp8 to Thr peptide as soluble competitor
T1 sequence (chain, enzymatically biotinylated on the biotin acceptor peptide (BirA)): KGNYVVTTH

[2] = biological target: T2, wild-type peptide KGNYVVTDH (NusA-KGNYVVTDH) (also: fused to NusA, biotinylated on biotin acceptor peptide (BirA), N-terminal His6 tag); assay: SPR (Biacore 4000); biotinylated antigen captured on NeutrAvidin CM5 chip, Fab in flow; 1:1 Langmuir fit
T2 construct: also called WT Asp; the native target for the 1i8i Fab; not shown: N-terminal His6 tag and biotin acceptor peptide; NusA, fusion partner
T2 chain: KGNYVVTDH
Procedure: Surface plasmon resonance data were measured on a Biacore model 4000 (Biacore, Uppsala, Sweden). All proteins were in TBS containing 0.1 mg/mL BSA and 0.01% Tween-20. A Biacore CM5 chip was coated with NeutrAvidin at 3000 RU and biotinylated antigens were captured at <100 RU.

[3] = biological target: Ala mutant peptide (Ala at position 8 of …); assay: competition phage ELISA; Asp8 to Ala peptide as soluble competitor
[4] = biological target: T3, unphosphorylated Ser peptide (Ser at position 8 of …) (also: fused to NusA, biotinylated on biotin acceptor peptide (BirA), N-terminal His6 tag); assay: competition phage ELISA; Asp8 to Ser peptide as soluble competitor
T3 construct: also called Ser/Thr (Ser member); not shown: N-terminal His6 tag and biotin acceptor peptide; NusA, fusion partner
T3 chain: KGNYVVTSH
Description: Without being bound by theory, the carboxylate group of Asp8 residue might mimic a phosphorylated residue and thus, the Ab can bind peptides with pSer, pThr, or possibly pTyr in place of Asp8 (Table 5).
Various concentrations of Fab-phage were mixed with a fixed concentration of biotinylated peptide and captured on the NeutrAvidin-coated wells for fifteen minutes. The bound phage were then detected using a horseradish peroxidase (HRP)-conjugated anti-M13 monoclonal (GE Healthcare). For phage competition ELISAs, plates were coated with 10 μg/mL NusA-[…] (the native target for the 1i8i Fab and a weak binder to pSAb, pSTAb, and pYAb), and blocked with 2% BSA. Sub-saturating levels of phage were then pre-bound to the various peptide antigens for two hours at 20° C. and then captured on the NusA-peptide coated plates for fifteen minutes. […] Bound scFv-Fc were detected with HRP-conjugated Protein A (Pierce).

[5] = biological target: Tyr mutant peptide (Tyr at position 8 of …); assay: competition phage ELISA; Asp8 to Tyr peptide as soluble competitor

fold less binding than to the wild-type Asp8 peptide [1]: > 100 fold | Kd [2]: 9.6 nM | koff [2]: 0.0032 s⁻¹ | kon [2]: 338000 M⁻¹ s⁻¹ | fold less binding than to the wild-type Asp8 peptide [3]: > 100 fold | fold less binding than to the wild-type Asp8 peptide [4]: > 100 fold | fold less binding than to the wild-type Asp8 peptide [5]: > 100 fold
B1: humanized Fab (humanized version of the mouse 1i8i Fab; parent scaffold, CDR H2 loop STGGYN) (Fab, V domains shown)
VH: EVQLVESGGGLVQPGGSLRLSCVTSGFTFRKFGMSWVRQAPGKGLEWVASISTGGYNTYYSDSVKGRFTISRDNSKNTLYLQMNSLRAEDTAVYYCTRGYSSTSYAMDYWGQGTLVTVSS
VL: DIVLTQSPATLSLSPGERATLSCMTSTDIDDDMNWYQQKPGQAPRLLISEGNTLRPGVPARFSGSGSGTDFTLTISSLEPEDFAVYYCLQSFNVPLTFGQGTKVEIKR
notes: also called parent Fab; humanized scaffold
